Experimental data reported in paper PMC4010968, “Nap1 stimulates homologous recombination by RAD51 and RAD54 in higher-ordered chromatin containing histone H1” (Scientific Reports, 2014).
Residue numbers refer to the chain shown, from its start. Numbers in names are those of the source. Blank lines part the entries; values can stand above or below the binder they belong to.

Columns and labels:
Human RAD54 (purified) [1] = target: T1, Human RAD54 (purified) (human, UniProt Q92698 1-747); assay: pull-down; Nap1-conjugated beads with purified RAD51 alone or purified RAD54 alone; SDS-PAGE with Coomassie Brilliant Blue staining; details: both partners purified
T1 construct: RAD54, human cDNA inserted into pFastBac HTc; purification details are in the Supplementary Methods; also called purified RAD54; source: recombinant human RAD54 baculovirus (pFastBac HTc vector), purified; details in Supplementary Methods
T1 sequence (looked up): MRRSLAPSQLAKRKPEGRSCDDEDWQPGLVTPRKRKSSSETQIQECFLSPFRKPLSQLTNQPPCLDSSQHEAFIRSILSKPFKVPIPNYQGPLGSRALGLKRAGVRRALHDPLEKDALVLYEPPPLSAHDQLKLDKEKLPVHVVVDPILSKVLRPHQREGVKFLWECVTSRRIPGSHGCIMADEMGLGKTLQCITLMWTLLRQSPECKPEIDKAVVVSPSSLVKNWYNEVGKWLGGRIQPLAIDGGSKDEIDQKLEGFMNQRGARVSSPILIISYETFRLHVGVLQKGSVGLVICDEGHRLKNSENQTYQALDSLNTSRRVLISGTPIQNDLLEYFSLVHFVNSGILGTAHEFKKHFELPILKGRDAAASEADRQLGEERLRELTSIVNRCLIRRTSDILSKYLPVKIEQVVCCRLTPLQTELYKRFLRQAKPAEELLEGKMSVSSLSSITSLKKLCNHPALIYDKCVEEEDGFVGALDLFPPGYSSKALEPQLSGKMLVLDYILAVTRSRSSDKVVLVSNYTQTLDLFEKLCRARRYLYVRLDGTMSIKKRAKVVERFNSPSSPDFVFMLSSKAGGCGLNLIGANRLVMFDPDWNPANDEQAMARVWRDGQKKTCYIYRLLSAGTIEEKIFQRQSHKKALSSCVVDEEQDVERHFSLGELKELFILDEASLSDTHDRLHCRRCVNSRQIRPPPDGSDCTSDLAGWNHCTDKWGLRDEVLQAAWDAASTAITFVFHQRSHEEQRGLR

Human RAD54 (purified) [2] = target: T1, Human RAD54 (purified); assay: native gel or EMSA; Nap1 or mutant incubated with the indicated amounts of RAD54; 5% native PAGE with Coomassie Brilliant Blue staining; RAD54 alone does not enter the gel; details: both partners purified

binding result (Human RAD54 (purified) [1]): binds
B1: Human Nap1 (purified, wild type) (natural protein, UniProt P55209 1-391, looked up)
chain: MADIDNKEQSELDQDLDDVEEVEEEETGEETKLKARQLTVQMMQNPQILAALQERLDGLVETPTGYIESLPRVVKRRVNALKNLQVKCAQIEAKFYEEVHDLERKYAVLYQPLFDKRFEIINAIYEPTEEECEWKPDEEDEISEELKEKAKIEDEKKDEEKEDPKGIPEFWLTVFKNVDLLSDMVQEHDEPILKHLKDIKVKFSDAGQPMSFVLEFHFEPNEYFTNEVLTKTYRMRSEPDDSDPFSFDGPEIMGCTGCQIDWKKGKNVTLKTIKKKQKHKGRGTVRTVTKTVSNDSFFNFFAPPEVPESGDLDDDAEAILAADFEIGHFLRERIIPRSVLYFTGEAIEDDDDDYDEEGEEADEEGEEEGDEENDPDYDPKKDQNPAECKQQ
notes: Nap1 (histone chaperone, nucleosome assembly protein 1), human; also called purified Nap1; wild type Nap1

binding result (Human RAD54 (purified) [2]): binds
B2: Nap1(E215,219,222,227K) mutant (natural protein, human, UniProt P55209 1-391, looked up)
chain: B1 chain with E215K, E219K, E222K, E227K
notes: Nap1, human, with Glu215, Glu219, Glu222 and Glu227 replaced by Lys; A trace amount of a read-through product was present as a contaminant in the purified fraction; also called Nap1(E215K,E219K,E222K,E227K) mutant; Nap1 mutant
